Among the data in article PMC11178869 are response values, retold here.

B1: TatC with C-terminal hexahistidine tag, wild type (TatABC system) [E. coli] / TatB [E. coli] (parent)
chain 1: MFDIGFSELLLVFIIGLVVLGPQRLPVAVKTVAGWIRALRSLATTVQNELTQELKLQEFQDSLKKVEKASLTNLTPELKASMDELRQAAESMKRSYVANDPEKASDEAHTIHNPVVKDNEAAHEGVTPAAAQTQASSPEQKPETTPEPVVKPAADAEPKTAAPSPSSSDKP
chain 2: MSVEDTQPLITHLIELRKRLLNCIIAVIVIFLCLVYFANDIYHLVSAPLIKQLPQGSTMIATDVASPFFTPIKLTFMVSLILSAPVILYQVWAFIAPALYKHERRLVVPLLVSSSLLFYIGMAFAYFVVFPLAFGFLANTAPEGVQVSTDIASYLSFVMALFMAFGVSFEVPVAIVLLCWMGITSPEDLRKKRPYVLVGAFVVGMLLTPPDVFSQTLLAIPMYCLFEIGVFFSRFYVGKGRNREEENDAEAESEKTEE
B2: TatC with C-terminal hexahistidine tag, wild type (TatABC system) [E. coli] / TatA [E. coli] (parent)
chain 1: MGGISIWQLLIIAVIVVLLFGTKKLGSIGSDLGASIKGFKKAMSDDEPKQDKTSQDADFTAKTIADKQADTNQEQAKTEDAKRHDKEQV
chain 2: B1 chain 2

The variants in the first experiment derive from B1. The experiment can be described thus: affinity purification (H6-tagged TatC) with SDS-PAGE/Western-blot band quantification. The note with it: eight replicates, read off a plot.
chain 2 Y154A: the response came to 0.81 signal ratio.
On the same count and under the same terms, to chain 2 L189A belongs 0.97 signal ratio; to chain 2 I50Y, 0.86 signal ratio.

The variants in the next experiment derive from B2. The experiment is described as above. The settings on record: eight replicates, read off a plot.
Consider chain 2 Y154A, for which the response was 1.6 signal ratio.
With chain 2 I50Y, the response came to 1.3 signal ratio.
Same read-out and setting: to chain 2 L189A belongs 0.67 signal ratio.
